Experiment [1] has as its target T1, TNFR2 on human K562 chronic myeloid leukemia cells and on primary human Treg cells (human, UniProt P20333 23-461).
T1 construct: whole, on cells; also called K562 cells
T1 sequence (looked up): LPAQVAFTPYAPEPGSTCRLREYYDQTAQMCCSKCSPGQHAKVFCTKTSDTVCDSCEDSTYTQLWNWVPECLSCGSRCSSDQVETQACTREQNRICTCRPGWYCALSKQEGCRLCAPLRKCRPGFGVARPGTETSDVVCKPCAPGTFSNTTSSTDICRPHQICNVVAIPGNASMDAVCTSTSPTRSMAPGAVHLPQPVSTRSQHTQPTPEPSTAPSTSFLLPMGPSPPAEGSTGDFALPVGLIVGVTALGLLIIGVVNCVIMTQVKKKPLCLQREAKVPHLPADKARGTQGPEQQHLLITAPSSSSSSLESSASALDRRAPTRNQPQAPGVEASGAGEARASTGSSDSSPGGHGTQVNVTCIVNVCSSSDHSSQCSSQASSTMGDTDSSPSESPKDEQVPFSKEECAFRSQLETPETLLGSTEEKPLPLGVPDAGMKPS
Nature of the experiment: flow cytometry on human K562 CML cells, MFI(FL2); unit taken from the axis Conc log(nM). Here is the method:
(§1) Assay steps: The mixture was centrifuged at 400 g for 5 min, and the cell medium was removed. K562 or Treg cells were resuspended in PBS. After counting, the cells were adjusted to a density of 2×10⁶/mL, and the cell suspension was added to a U-bottom 96-well plate at 100 μL/well. The test antibody was added, subjected to a three-fold gradient dilution, and left to stand on ice for 30 min. The mixture was centrifuged at 300 g for 5 min, and the supernatant was removed. The cells were washed once with PBS. The mixture was centrifuged at 300 g for 5 min, and PBS was removed. 100 μL of PE-anti-human Fc antibody (SOUTHERN BIOTECH, 2040-09) diluted at a ratio of 1:200 was added to each well. The mixture was incubated on ice for 30 min in the dark. The mixture was centrifuged at 400 g for 5 min, and the supernatant was removed. The cells were washed twice with PBS. The cells were resuspended in 100 μL of PBS and assayed by using a flow cytometer (BD, ACCURIC6 plus).
(In general: A flow cytometer gives signals particle by particle.)

The target in experiment [2] is T1, TNFR2 on human K562 chronic myeloid …. Nature of the experiment: flow cytometry on primary human Treg cells, MFI(FL2); unit taken from the axis Conc log(nM). The protocol:
Tregs were prepared as follows: Human PBMC cells ([…], PB005F) were thawed, CD4⁺ CD25⁺ CD127^low cells were sorted by flow cytometry, and Treg cells were isolated. According to CD4⁺:anti-CD3/CD28 Beads=1:1, Dynabeads Human T-Activator CD3/CD28 (Gibco, 11131D) was added, followed by 10 ng/mL recombinant IL2, and the cells were stimulated for 7 days.
as §1

Experiment [3] has as its target T2, human TNFR2 overexpressed on CHO-S cells (CHOS-hTNFR2) (human, UniProt P20333 23-461).
T2 construct: also called hTNFR2 CHO-S; human TNFR2 molecule overexpressed on CHO-S cells
T2 sequence: T1 sequence (looked up)
In words: flow cytometry on CHO-S cells overexpressing human TNFR2 (humanized antibodies), MFI-FL2A; unit taken from the axis Conc log(nM). Here is the method:
In the study, the binding of the antibodies, after being diluted in a gradient, to a stable CHO-S strain line overexpressing human TNFR2 on the surface was assayed by using a flow cytometer.
CHOS-hTNFR2 cells were counted and diluted to 2×10⁶ cells/mL, and added to a U-bottom 96-well plate at 100 μL/well. The mixture was centrifuged at 300 g for 5 min, and the cell medium was removed. Samples (the humanized antibodies hz3C4.7, hz69B1.5, hz69B1.6, hz69B1.11 and hz69B1.20, the chimeric antibody 69B1, and the positive control antibody OPI) (the antibodies were subjected to a three-fold dilution in PBS from the maximum antibody concentration of 300 nM) were added to the U-plate, and the cells were resuspended at 100 μL/well and left to stand on ice for 30 min. The suspension was centrifuged at 400 g for 5 min, and the supernatant was removed. The cells were washed twice with PBS. The mixture was centrifuged at 300 g for 5 min, and PBS was removed. 100 μL of anti-human Fc PE-labeled secondary antibody (SoutherBiotech; 2040-09) (diluted at a 1:100 ratio in PBS) was added to each well and incubated on ice for 30 min in the dark. The mixture was centrifuged at 400 g for 5 min, and the supernatant was removed. The cells were washed 3 times with PBS. The cells were resuspended in 200 μL of 1×PBS and assayed by FACS.

Experiment [4] has as its target T2, human TNFR2 overexpressed on CHO-S …. Nature of the experiment: flow cytometry on CHO-S cells overexpressing human TNFR2 (hybridoma antibodies), MFI. The protocol:
In the study, the binding of the hybridoma antibodies (3C4, 69B1, and 72G8) of the present invention, after being diluted in a gradient, to a stable CHO-S cell strain overexpressing human TNFR2 on the surface was assayed by using a flow cytometer.
CHOS-hTNFR2 cells or CHOS-cTNFR2 cells were counted and diluted to 2×10⁶ cells/mL, and added to a U-bottom 96-well plate at 100 μL/well. The mixture was centrifuged at 300 g for 5 min, and the cell medium was removed. The dilutions of the samples (the hybridoma antibodies 3C4, 69B1, and 72G8 and the positive control antibody OPI) (the antibodies were subjected to a two-fold serial dilution in PBS from the maximum antibody concentration of 300 nM) were added to the U-plate, and the cells were resuspended at 100 μL/well and left to stand on ice for 30 min. The suspension was centrifuged at 400 g for 5 min, and the supernatant was removed. The cells were washed twice with PBS. The mixture was centrifuged at 300 g for 5 min, and PBS was removed. […] The mixture was centrifuged at 400 g for 5 min, and the supernatant was removed. The cells were washed 3 times with PBS. The cells were resuspended in 200 μL of 1×PBS and assayed by FACS.

Experiment [5] concerns the target T3, hTNFR2 protein (coated on the microplate in the blocking ELISA) (human, UniProt P20333 23-257).
T3 construct: The construct coated in the ELISA is not described (it may or may not be the immunogen, Sino biological 10417-H03H)
T3 sequence (looked up): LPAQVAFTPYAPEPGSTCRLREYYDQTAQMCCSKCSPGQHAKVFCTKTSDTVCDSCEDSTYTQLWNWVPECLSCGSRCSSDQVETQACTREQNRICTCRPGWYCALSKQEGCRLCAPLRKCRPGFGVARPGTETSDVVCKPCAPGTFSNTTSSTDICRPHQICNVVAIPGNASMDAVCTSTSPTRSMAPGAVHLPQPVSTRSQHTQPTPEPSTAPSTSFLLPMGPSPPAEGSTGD
Nature of the experiment: blocking ELISA: hTNFR2 coated on the plate, binding of biotinylated TNFα blocked by the antibody, Avidin-HRP. Here is the method:
The ability of the hybridoma antibodies 3C4, 69B1, and 72G8 and the control antibody OPI to block the binding of human TNFα to hTNFR2 was assayed by ELISA.
(§2) The hTNFR2 protein was resuspended and dissolved to a concentration of 2 μg/mL with PBS, and a microplate was coated with the protein and incubated overnight. The plate was blocked with 5% BSA for 1 h, and a biotinylated antigen (Recombinant Biotinylated TNFα protein (ACRO)) was diluted to 3 μg/mL and added to the plate at 20 μL/well. The antibodies prepared as described above (3C4, 69B1, and 72G8) were each diluted in a gradient starting from the maximum concentration of 300 nM for a total of 8 or 12 dilution gradients. The diluted antibodies were added at 200 μL/well and incubated in PBS on ice for 30 min. The antigen-antibody mixture was incubated in a microplate for 90 min and washed three times with PBS, and the supernatant was discarded. 100 μL of Avidin-HRP (Invitrogen) diluted at a 1:5000 ratio was added to each well, incubated at room temperature for 30 min, and washed six times with PBS. A TMB chromogenic solution (solarbio) was added to the plate at 100 μL/well for color development for 1 min, and the reaction was stopped by adding a stop buffer (solarbio) at 100 μL/well. The plate was read on a microplate reader at OD₄₅₀ and OD₆₂₀.
Background: An ELISA detects its analyte on a solid surface through an enzyme-linked reagent.

The target of experiment [6] is T3, hTNFR2 protein (coated on the …). Nature of the experiment: blocking ELISA: hTNFR2 coated on the plate, binding of biotinylated TNFα blocked by the antibody; unit taken from the axis Conc log(nM) [A]. Here is the method:
as §2, with “to 2” for “to 3”, “at 10” for “at 20”, “at 100” for “at 200”
In a similar manner to that in Example 7, the ability of the humanized antibodies hz3C4.7, hz69b1.5, hz69b1.6, hz69b1.11, and hz69b1.20, and the control antibody OPI to block the binding of human TNFα to hTNFR2 was assayed by ELISA.

Residue numbers refer to the chain shown, from its start.

B1: humanized antibody hz69B1.5 (antibody, human IgG1, kappa, V domains shown)
VH: QIQLVQSGSELKKPGASVKVSCKASGYTFTDYSMNWVRQAPGQGLEWMGWLNTETGEPIYADDFKGRFVFSLDTSVSTAYLQISSLKAEDTAVYFCAREAIYYGTSYVLDYWGQGTLVTVSS
VL: DIVLTQSPASLAVSPGQRATITCRASESVEYYGTNFMQWYQQKPGQPPKLLIYSASNVESGVPARFSGSGSGTDFTLTINPVEANDTANYYCQQSRKDPSTFGQGTKLEIKR
A word on the EC50: it is the concentration at which the effect is half-maximal. Lower therefore signals higher potency in that assay. Consider B1, for which the EC50 in experiment [1] was 0.0613 nM; in experiment [2] it was 0.0239 nM; in experiment [3] it was 0.424 nM.

B2: humanized antibody hz69B1.6 (antibody, human IgG1, kappa, V domains shown)
VH: QVQLVQSGAEVKKPGASVKVSCKASGYTFTDYSMNWVRQAPGQRLEWMGWLNTETGEPIYADDFKGRVTITRDTSASTAYMELSSLRSEDTAVYYCAREAIYYGTSYVLDYWGQGTLVTVSS
VL: B1 VL with Y91F
In the case of B2, in experiment [3], a half-maximal effect (EC50) was put at 0.357 nM.

B3: humanized antibody hz69B1.11 (antibody, human IgG1, kappa, V domains shown)
VH: B2 VH
VL: B1 VL with N85Q, Y91F
B3: the EC50 in experiment [1] was determined as 0.0446 nM; in experiment [2] it was 0.0243 nM; in experiment [3], 0.36 nM.

B4: humanized antibody hz69B1.20 (antibody, human IgG1, kappa, V domains shown)
VH: B1 VH
VL: B1 VL with N85Q, Y91F
On to B4, for which the EC50 was 0.0549 nM in experiment [1], 0.0299 nM in experiment [2] and 0.42 nM in experiment [3].

B5: hybridoma antibody 3C4 (antibody, V domains shown)
VH: QVQLQQSGPELVKPGASVTISCKASDYSFTNYYIHWVKQRPGQGLEWIGWIYPGNVITKYHEKFKGKAILTADTSSTTAYMQLNSLTSEDSAVYFCARSRATGYFDYWGQGTTLTVSS
VL: DIQMTQTTSSLSASLGDRVTISCRASQDIRNYLNWFQQKPDGTIKLLIYYTSRLHSGVPSRFSGSGSGTDYSLTISNLEQEDMATYFCQQFNTLPWTFGGGTKLEIK
notes: Murine antibody from the hybridoma (detected with anti-mouse IgG)
For orientation: EC50 (read off the curve) means the concentration that produces a half-maximal response. A lower EC50 (read off the curve) goes with higher potency in that assay. Take B5: the “EC50 (read off the curve)” value in experiment [4] was roughly 2 nM. Further, in experiment [5], the “IC50 (read off the curve)” value was roughly 5 nM.

B6: humanized antibody hz3C4.7 (antibody, human IgG1, kappa, V domains shown)
VH: QVQLVQSGAEVKKPGASVKVSCKASDYSFTNYYIHWVRQAPGQGLEWMGWIYPGNVITKYHEKFKGRVTMTADTSTSTAYMELSSLRSEDTAVYYCARSRATGYFDYWGQGTLVTVSS
VL: DIQMTQSPSSLSASVGDRVTITCRASQDIRNYLNWYQQKPGKAPKLLIYYTSRLHSGVPSRFSGSGSGTDYTLTISSLQPEDFATYYCQQFNTLPWTFGGGTKVEIKR
What is called IC50 is the midpoint of a concentration-inhibition curve. Higher therefore signals weaker potency. In the case of B6, the EC50 in experiment [1] is 0.0356 nM; in experiment [2] it was 0.0599 nM; in experiment [3], 0.207 nM. In experiment [6], this molecule had an IC50 of 30 nM.

For the origin of these results see US20240026019A1 (Innovent, published 2024).
